The source of these data is the nanobody polyreactivity screen of Harvey et al. (2022).

The data set in a line: yeast display, Sf9 membrane polyspecificity reagent, FACS + sequencing; frameworks hold sequencing errors. In outline:
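Galactose-induced (36–48 hours) yeast carrying a synthetic nanobody display library were exposed to 10% biotinylated, detergent-solubilized Sf9 membrane reagent at 4 °C for 1 hour. FACS followed streptavidin microbead enrichment, using low and high (top ~1%) gates for expression (anti-HA) and reagent binding (streptavidin). Colony PCR, MiSeq 2 × 250 sequencing and CDR-length filtering followed. Labels for polyreactivity reflect the gate of origin.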
On to “QVQHAESGGGLDQAGGSLRLSCAASGGNFQANAMGWSRQATGKEREFVATITRGGGSTYYADSVKGRFTISRDNAKNTVYLQMNSLKPEDTAVYYCNSKPSYYQRYNYWGQGTQVTVSS”, for which the “polyreactivity (PSR sort gate)” value was “high polyreactivity”.

With “QVQHDQSGGGLVQAGGSLRLSCAASGRTFKPYVMGRYREAPGKERELVAAISSRGDITYYADSVKGRFTITRDNAKNTVYLQMNSLKPEDTAVYYCNAGPAVRSAYSTPYYDYWGQGTQVTVSS”, the “polyreactivity (PSR sort gate)” value is reported as “low polyreactivity”. As to “QVQHEDSGGGLVQAGGSHRVSCAASGSTFAYNAMGGSRKAPGKERELVATISTDGSTYADSVKGRFTISRDNAQNTVYLQMNSLKPEDTAVYYCNADGHPSDPGYDYWGQGTQVTVSS”, the “polyreactivity (PSR sort gate)” value is listed as “low polyreactivity”. For “QVQHEESGGGLVQAGGSLRLSCAASGSIFSDYALGWYRPAPGKERELVAAITINGGSTYYADSVKGRFTISRDNAKITVYLQLNSLKPEDTAVEYCNAGWGRLYDYWGQGTQVTVSS” the value was “low polyreactivity”. For “QVQHGESGGGLVQAGSSLRLSCAASGSTIVNNAMGWYRQAPGKERELVAANTSGGSTNYADSVKGRFTISRDNAKNTVYLQMNSLKPEDTAVYYSNADGDSWYTGIPAVSHGYWGQGTQVTVSS”, the “polyreactivity (PSR sort gate)” value is recorded as “low polyreactivity”. The same measure for “QVQHVASGGGIDQAGGSLRLSCAASGFIFSWYALGWYRQAPGKERELVAGISIRGGRTYADSVKGRFTISRDNAKNTVYLQMNSLTPEDTAVYSCATRSYRPYHSLYDYWGQGTQVTVSS”: “high polyreactivity”. For “QVQHVDSGGGLDHAGGSLRLSCAASGSIFAGYAMGWYRQAPAKERELDAAISSTGGRTYYADSVKGRFTISRDNAKTSVYLQMNSLKPEDTAVYYCGGAYYASYYYWGQGTQVTVSS” the value was “high polyreactivity”; for “QVQHVDSGGGLVQAGGSLRLSCAASGSTFGYNAMGWYRQAPGKERELVAAITFSGDSTSYADSVKGRFTISRDNAKNSVYLQMNSLKPEDTAVYYCAVDTWNGDGSGYSLEFEYWGQGTQVTVSS”, “low polyreactivity”.

Regarding “QVQHVESCGGLVQAGGSLRLSCAASGSIFTYYAMGWYRQAPGKEREFVAAISRRGGSTYYADSVKGRFTISRDNAKNTVYLQMNSLKPEDTAVYYCNARYTGSSLYYWGQGTQVTVSS”, the “polyreactivity (PSR sort gate)” value is given as “high polyreactivity”. For “QVQHVESCGGLVQAGGSLRLSCAASGYIFSIYAMGWSRQAPGKERELVAAITWSGATTYYADSVKGRFSISRDNAKNTVYLQMNSLKPEDTAVYYCNADYWHYYEDYESWGQGTQVTVSS” the value was “low polyreactivity”; for “QVQHVESGEGLVQAGGSLRLSCAASGSIFAGYAMGWYRQAPGKERELVAAITSSGGSTYYADSVKGRFTISRDNAKNTVYLQMNSLKPEDTAVYYCAKDKLIFYRVGSDYWGQGTQVTVSS”, “low polyreactivity”. As to “QVQHVESGGGIVQAGGSLRISCSASGRTLGYYAMGLYRQAPGKETEMVAASSRSGGSTYYADSVQGRFTNSRDNAKNTVYVEMQSLNPEDTAVYDCAATYGPSRYRYDYWGQGTQVTVSS”, the “polyreactivity (PSR sort gate)” value is recorded as “high polyreactivity”. For “QVQHVESGGGIVQAGGSLRLSCAASGRTFGPYAMGWYRQAPGKEWELVAVISGRGTSTYYADSVKGRFTISRDNAKNTVYLQMNSLKPEDTAVYYCKADYGSWFWGFDYWGQGTQVTVSS”, the “polyreactivity (PSR sort gate)” value is “low polyreactivity”.

Take “QVQHVESGGGIVQAGGSLRLSCAASGSTFWRNAMGWYRQAPGKEREFVASISWSGGGTYYADSVKGRFTISRDNEKNTVYLQMNSLKPEDTAVYYCAATPDWSYWYGNGDYDYWGQVTQVTVSS”: the “polyreactivity (PSR sort gate)” value is “low polyreactivity”. For “QVQHVESGGGLDQAGGRLRLSCAASGFTFARNAMGWYRQAPGKDRELVAAINRSGGSTYYADSVKGRFTISRDNAKNTVYLQMNSLKPEDTAVYYCNAPYAQFTSGYDYWGQGTQVTVSS”, the “polyreactivity (PSR sort gate)” value is reported as “high polyreactivity”.

On to “QVQHVESGGGLDQAGGSLRLRCAAYGFTFSFYAMGWYRQEPGKERELVAAISYSGGITYYADSVKGRFTISRDNAKNTVYLQMNSLKPEDTAVYYCAAVPYYSKGSSLYNSGNNYWGQGTQVTVSS”, for which the “polyreactivity (PSR sort gate)” value was “low polyreactivity”. For “QVQHVESGGGLDQAGGSLRLSCAASGSILTRYVMGWYRQAPGKERELVAAISQRGGSTYYADSVTGRFTISRDTAKYTVFLQMNSLKPEDTAVYYCAAETRVTSRRRFDYWGQGTQVTVSS” the value was “high polyreactivity”; for “QVQHVESGGGLEQARGSLRLTCAASGRTFRYYAMAWYRQAPGKERELVASISDGGSTNYADSVNGRFTITRDNAKNTVYLQMNRLKPEDTAVYYCNSKCYVWYLYDEFGYWGQGTQVTVSS”, “low polyreactivity”. For “QVQHVESGGGLGQAGGSLRLSCAASGRIFDEYALGSYRQAPGKERELVAAISLIGASTYYADSVKGRFTISRDTAKNTVYLQMNSQHPEDTAVYYCAAEYAFVVPGYYREVYYWGEGTQVTVSS” the value was “low polyreactivity”. For the sequence “QVQHVESGGGLGQARRSLRLSCAASGTIINANAMGWDRQAPGKERELVASISGGAGSTYYADSVKGRFTISRDNAKNTVYLQMNSLKPEDTAVYYCAADRPYRYDYWGQGTQVTVSS”, the “polyreactivity (PSR sort gate)” value is on record as “low polyreactivity”. As to “QVQHVESGGGLLQAGGSLRLSCAASGGTFTPNVMGWYRQAPGKVRELVAAIDDSGSRTYYADSVKGRFTISRDYAKNTVYLQMNSLKPEDTAVYFCAVFWYGTYPMYYWGQGTQVTVSS”, the “polyreactivity (PSR sort gate)” value is “low polyreactivity”.

For the sequence “QVQHVESGGGLLQAGGSLRLSSAATGSTNAMGWYRQAHGKERELVAAISRRGGSTYYADSVKGRFTISRDNAKKTVYLQMFSLKPEDTAVYYCAAPYSTFSYVYWGQGTQLTVSS”, the “polyreactivity (PSR sort gate)” value is reported as “high polyreactivity”. For “QVQHVESGGGLVQAGASLRLSCAASGLTFYRYALGWYRQARGNERELVAAITSGTRTYYADSVKGRFTISRDNAKNTVYLQMYSLKPEDTAVYYCAASWQTRTYQSRYYYWGQGTQVTVSS” the value was “high polyreactivity”; for “QVQHVESGGGLVQAGGILRLSSAASGSTFVKNGMGWSRQAPGKERELVAAISGRRGSTYYADSVKGRFTISRDNAKNTVYLQMNSLKPEDTAVYYCNKAYSVAYTYNYWGQGTQVTVSS”, “high polyreactivity”; for “QVQHVESGGGLVQAGGRLRLSCAASGRIFGGYTMGWYRQAPGKERELVAAINSGGSTYYADSVKGRFTISRDNAKNTVYLQMNCLKPEDTAVYYCAKVRSYFGKYGYGYWGQGTQVTVSS”, “high polyreactivity”. For “QVQHVESGGGLVQAGGRLRLSCAASGRTFPRYAIGLYRQAPGKERELVAAISVLAGITYYADSVKGRFTISRDNAKNTVYLQMNSLKPEDTAVYYCAKDHWTTSYDEGDYWGQGPQVTVSS”, the “polyreactivity (PSR sort gate)” value was “low polyreactivity”. The same measure for “QVQHVESGGGLVQAGGRLRLSCAASGSIFVAYAMGWSRTAPGKERELVAAITYSAGSTYYADSVKGRITISRDNAKNTVYLQMNSLKPEDTAVYYCAADAMVFSFIGYEYWGQGTQVTVSS”: “low polyreactivity”. The same measure for “QVQHVESGGGLVQAGGSLLLSCAASGSITVSYMGWYRQAPGKERELVAAISFSGASTYYADSVKGRFTISRDDAKNTVYLQMNSLKPEDTAVYYCAAEYVIYYWFEWLDLDYWGQGTQVTVSS”: “high polyreactivity”; for “QVQHVESGGGLVQAGGSLRFSCAASGFIFIRNGMGWYRQAPGKERELVAAISARGGSTYYADSVKGRFTISRDNAKNTVYLQMNSLKPEDTALYYCAAYRPRKYDYWGQGTQVTVSS”: “high polyreactivity”; for “QVQHVESGGGLVQAGGSLRLICAASGFSFILYAMGWYRQARGKERELVAAISSSGGRRYYADSVKGRFTISRDNANNTVYIQMNSLKPEDTAVYYCNAVRTVNDYHYDYWGQGTQVTVSS”: “high polyreactivity”. Turning to “QVQHVESGGGLVQAGGSLRLICAASGSTFRGYAMGWYRPAPGKERELVAAITSSGGSTYYADSVKGRFTISRDNAKNTVYLQMNSLKPEDTAVYSCAAASRRFGLYGYWGQGTQVTVSS”, the “polyreactivity (PSR sort gate)” value is “high polyreactivity”. Take “QVQHVESGGGLVQAGGSLRLRCAASGRTFGQNTMGWSRQAPGKERELVAAISWSGDSTYYADSVKGRFTISRDNAKNTVYLQMNSLKTEDSAVYYCAADPYNYYVSGYDYWGQGTQVTVSS”: the “polyreactivity (PSR sort gate)” value is “low polyreactivity”. For the sequence “QVQHVESGGGLVQAGGSLRLSCAASGFIFDRYAMGWYRQAPGKERELVAAISSGGSTYYADSVKGRFTISRDNAKNTVYLQMNSLKPEDTAVYYCAAESWLNFIYEYDYWGQGTQVTVSS”, the “polyreactivity (PSR sort gate)” value is recorded as “low polyreactivity”. Consider “QVQHVESGGGLVQAGGSLRLSCAASGFIFRRNVMGWYRQAPGKERELVAAISNSGGSTYYADSVKGRFTISRDNAKNTVYLQMNSLKPEDTAVYYCAAVYSYWGRYFEYGYWGQGTKVTVSS”, for which the “polyreactivity (PSR sort gate)” value was “high polyreactivity”. For the sequence “QVQHVESGGGLVQAGGSLRLSCAASGFIFSKYAMGWYRPAPGKERELVAAITRSGGRTYYADSVKGRFTISRDNAKNTVYLQMNSLKPEDTAVYYCAASWLYFGRDYWGQGTQVTVSS”, the “polyreactivity (PSR sort gate)” value is on record as “high polyreactivity”. Take “QVQHVESGGGLVQAGGSLRLSCAASGFIFTAYAMGWYRQAPGKERELVAGIRSGSSTYYADSVKGRFTISRDNAMNTVYLQMNSLKPEDTAVYYCNAEKYNFIYAYEYWGQGTQVTVSS”: the “polyreactivity (PSR sort gate)” value is on record as “low polyreactivity”. For “QVQHVESGGGLVQAGGSLRLSCAASGFIFWKNAMGWYSQAPGKERELVAAITVTGASTYYADSVKGRFTISRDNAKNTVYLQMNSLKPEDTAVYYCAAKTLSVGYVDPDYGRDYWGQGTQVTVSS” the value was “low polyreactivity”; for “QVQHVESGGGLVQAGGSLRLSCAASGFIYSTNAMGWYRQAPGKERELVATIRSGGSTNYADSVKGRFTISRDNAKNTVYLQMNCLQPEDTAVYYCNVDDTSWTTSGGRFGQVESDYWGQGTQVTVSS”, “low polyreactivity”. On to “QVQHVESGGGLVQAGGSLRLSCAASGFTFLKNAMGWYRQAPGKERELVAAITSSGGRTYYADSVKGRFTISRDNAKNTVYCQMISLKPEDTAVYYCNKGPLPGYDYWGQGTQVTVSS”, for which the “polyreactivity (PSR sort gate)” value was “high polyreactivity”. For the sequence “QVQHVESGGGLVQAGGSLRLSCAASGFTFYTYAMGWYRPAPGKERELVAAITSSGGSTYYADSVKGRFTISRDNAKNTVYLQMNSLKPEDTAVYYCNDRVRTQQRWVDYWGQGTQVTVSS”, the “polyreactivity (PSR sort gate)” value is listed as “high polyreactivity”. Turning to “QVQHVESGGGLVQAGGSLRLSCAASGFTYFSNAMGWYREAPGKERELVASITNDGSTYADSVKGRFTISRDNAKNTVYLQMNRLKAEDTAVYYCAARFPKWRYSPRTGERFDYWGQGTQVTVSS”, the “polyreactivity (PSR sort gate)” value is “low polyreactivity”.
